Measurements reported in article PMC11188089, “Structural basis for antibiotic transport and inhibition in PepT2, the mammalian proton-coupled peptide transporter” (Research Square, 2024).
Like-named read-outs stand apart in the source and are kept apart here. Where a SMILES comes first, the peptide text is derived from it.

Assays:
[1] = target: Rattus norvegicus PepT2 (SLC15A2), proton-coupled peptide transporter (Rattus norvegicus) (UniProt Q63424)
[2] = target: T1, PepT2 (Rattus norvegicus, UniProt Q63424); set-up: gene Slc15a2
T1 sequence (Q63424 1-729): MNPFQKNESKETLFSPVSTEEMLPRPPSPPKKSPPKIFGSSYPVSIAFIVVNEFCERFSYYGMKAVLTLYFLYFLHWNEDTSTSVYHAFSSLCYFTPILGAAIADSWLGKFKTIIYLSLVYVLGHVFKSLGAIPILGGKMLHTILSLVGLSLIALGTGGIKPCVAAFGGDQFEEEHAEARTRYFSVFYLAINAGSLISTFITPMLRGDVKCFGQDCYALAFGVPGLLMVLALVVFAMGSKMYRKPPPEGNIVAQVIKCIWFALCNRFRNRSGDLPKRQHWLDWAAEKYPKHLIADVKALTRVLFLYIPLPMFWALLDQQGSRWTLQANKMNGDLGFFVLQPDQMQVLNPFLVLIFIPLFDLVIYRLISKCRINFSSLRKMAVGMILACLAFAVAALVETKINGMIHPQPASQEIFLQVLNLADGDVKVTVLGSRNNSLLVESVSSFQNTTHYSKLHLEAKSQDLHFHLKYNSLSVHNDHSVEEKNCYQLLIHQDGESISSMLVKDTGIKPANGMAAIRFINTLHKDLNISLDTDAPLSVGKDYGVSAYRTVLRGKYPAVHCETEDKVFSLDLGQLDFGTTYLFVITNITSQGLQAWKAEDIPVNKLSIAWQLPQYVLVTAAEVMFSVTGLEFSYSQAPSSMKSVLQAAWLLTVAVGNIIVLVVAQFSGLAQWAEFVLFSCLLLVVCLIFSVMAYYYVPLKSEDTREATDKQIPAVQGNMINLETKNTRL

[3] = target: T1, PepT2; experiment: inhibition of ^3H di-alanine uptake in PepT2 proteoliposomes; counterflow; SSM electrophysiology; format: biochemical; set-up: gene Slc15a2; purified rat PepT2 reconstituted into liposomes
[4] = target: T2, Rattus norvegicus PepT2 (SLC15A2), proton-coupled peptide transporter (Rattus norvegicus, UniProt Q63424); experiment: cryo-EM structure; PepT2 after SEC (5-6 mg/ml, DDM:CHS) mixed with 1 mM antibiotic (cefadroxil, amoxicillin or cloxacillin) for one hour, then 1.2 molar excess of nanobody D8, on ice for at least 30 minutes; details: both partners purified
T2 construct: PepT2 (SLC15A2) from Rattus norvegicus; The extracellular domain (ECD) was in the protein but was not built in the deposited models; For the IC50 assay the same purified protein was reconstituted into POPE:POPG liposomes; The Addgene ids 167988 and 167989 are assigned to PepT2 and the nanobody by the order in the sentence; also called rat PepT2; RnPepT2; not shown: GFP, C-terminal, cleaved; His …

Question: For di-alanine peptide, which IC50 for inhibition of the uptake of radioactive (3H) di-alanine into rat PepT2 proteoliposomes [1] is on record?
Answer: 32 µM

Question: For `Nc1nc(/C(=C/CC(=O)O)C(=O)N[C@@H]2C(=O)N3C(C(=O)O)=CCS[C@H]23)cs1` [ceftibuten], which IC50 [2] is on record?
Answer: 1000 µM

Question: With `C[C@H](N)C(=O)N[C@@H](C)C(=O)O` [di-alanine] (H-Ala-Ala-OH) as the molecule, how does the IC50 [3] read?
Answer: 32 µM

B1: nanobody D8 (inhibitory nanobody against rat PepT2) (VHH)
VHH: QVQLVESGGGLVQPGGSLRLLCVASGRPFNDYDMGWFRQAPGKEREFVASISWSGRVTDYSDSMKGRCTVSRDNAKGTMFLQMSNLVPRDTAVYYCAAARRRWTFKATNTEEFYETWGQGTQVTVSS
notes: the nanobody was resolved in the structures solved here (PDB 9BIR, 9BIS, 9BIT, 9BIU); expression plasmid in Addgene; also called the nanobody
Question: Does B1 bind [4]?
Answer: binds
